US20220227846A1

Key:
Assay in all cases: SPR, calculated KD (Qdat software)
[1] = biological target: Aβ42 oligomers (ADDLs/globulomers) (UniProt P05067)
[2] = biological target: C-terminal biotinylated Aβ42 monomers (UniProt P05067)
[3] = biological target: N-terminal biotinylated Aβ42 monomers (UniProt P05067)
[4] = biological target: C-terminal biotinylated Aβ42 ADDLs/globulomers (UniProt P05067)
[5] = biological target: Aβ42 fibrils (UniProt P05067)
Aβ42 fibrils, sequence (P05067 672-713 limits assumed): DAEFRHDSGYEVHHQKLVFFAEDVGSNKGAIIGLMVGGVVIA

Aβ42 oligomers (ADDLs/globulomers), sequence (P05067 672-713 limits assumed): as above
C-terminal biotinylated Aβ42 ADDLs/globulomers, sequence (P05067 672-713 limits assumed): as above
N-terminal biotinylated Aβ42 monomers, sequence (P05067 672-713 limits assumed): as above
C-terminal biotinylated Aβ42 monomers, sequence (P05067 672-713 limits assumed): as above

## 6E10 (mouse mAb to Aβ amino acids 1-16; BioLegend, San Diego, CA) (antibody)
[1]
  Kd: 69 nM
[2]
  Kd: 47 nM
[3]
  Kd: 158 nM
[4]
  Kd: 50 nM
[5]
  Kd: 56 nM
